Experimental findings from the supplement of paper PMC10567573 are described below.

± gives the standard deviation.

The data set can be described thus: protein stability index of a GFP-peptide fusion (GPS, HEK-293T) (PSI 1-6); higher = more stable.
The mark [1] stands for this setting: treatment: DMSO, c terminus: a fixed tail appended.
The mark [2] stands for this setting: treatment: MLN4924 1 uM, 8 h, c terminus: a fixed tail appended.
[3] abbreviates: treatment: DMSO, c terminus: native.
The mark [4] stands for this setting: treatment: MLN4924 1 uM, 8 h, c terminus: native.
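Further: 24-mer peptide tiles fused after GFP, lentivirally expressed, FACS-sorted into six equal bins by GFP/DsRed ratio, decoded by Illumina sequencing, PSI is the read-weighted mean bin number.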

VPISVTGIAQVKIQGQNKEMLAAA [FLOT1] registered a protein stability index under setting [1] of 3.52 ± 0.27 and a protein stability index under setting [2] of 3.61 ± 0.13. As for VPSKPPMSLEPQNGTYAGPAPAFQ [ANKRD40], the protein stability index reads like this: under setting [1], 4.12 ± 0.41; under setting [2], 4.25 ± 0.14. The matching figures for VPVDTGVAARTPAVEGLTEAEEEE [TPD52L2]: 5.51 ± 0.15 and 5.4 ± 0.13.

As to VQIYNLSQNIQEDDLQQLQLFTEY [ATL3], the protein stability index amounted to 2.44 ± 0.35 under setting [1] and 2.28 ± 0.27 under setting [2]. On to VQLSDEMFVFQDGRWVNENCRLQS [CBY2], for which the protein stability index is, setting by setting: under setting [1], 3.06 ± 0.26; under setting [2], 3.03 ± 0.34. On to VRLHDSISEEGHHYLIFDLVTGGE [CAMK2A], for which the protein stability index runs as follows: under setting [1], 2.23 ± 0.4; under setting [2], 2.26 ± 0.18. Regarding VRQINRKTPVPGKARKKSSCQLL [RAP1B], the protein stability index worked out at 4.5 ± 0.27 under setting [3] and 4.44 ± 0.18 under setting [4]. As for VRVPNGGGGGGGLPISTVREVALL [CDK4], the protein stability index by setting is: under setting [1], 2.5 ± 0.33; under setting [2], 2.63 ± 0.23. Consider VRWLRPVHRQLGEANEEFALRVQQ [AUP1], for which the protein stability index reads like this: under setting [1], 3.1 ± 0.25; under setting [2], 3.02 ± 0.19.

Sequence VSQLYPESIVPIPSSNEEIRLVDD [INTS4] returned a protein stability index under setting [1] of 4.92 ± 0.18 and a protein stability index under setting [2] of 4.88 ± 0.081.

VSQQTGSPGKQPGENSDCHRDSSQ [ZNF8]: the protein stability index came to 5.31 ± 0.47 under setting [1] and 5.47 ± 0.21 under setting [2]. In the case of VTINIQDLLSCSNFAVQHRYLFEE [MATN2], the protein stability index stood at 2.86 ± 0.35 under setting [1] and 2.87 ± 0.73 under setting [2].

For the sequence VTPRTALLTWTEPPVRPAGYLLSF [TNXB], the protein stability index came out at 2.42 ± 0.29 under setting [1] and 2.2 ± 0.26 under setting [2].

With VVAMARKLQDVFEMRFAKMPDEPV [BRD3], the protein stability index was determined as 2.49 ± 0.29 under setting [1] and 2.64 ± 0.35 under setting [2]. In turn, VVGALPAEHQFSFMEKRNQWLVSQ [TRAF3IP2] came in with a protein stability index under setting [1] of 2.36 ± 0.24 and a protein stability index under setting [2] of 2.65 ± 0.26. The corresponding values for VVGDNAVGKTRLICARACNTTLTQ [RHOBTB1] are 2.69 ± 0.32 and 2.73 ± 0.38. VVGTPCYISPELCEGKPYNQKSDI [NEK8] displayed a protein stability index under setting [1] of 3.29 ± 0.38 and a protein stability index under setting [2] of 3.49 ± 0.56. Take VVHDWLYSYVYQDGLRLLGARARG [SOAT2]: the protein stability index by setting is: under setting [1], 2.46 ± 0.44; under setting [2], 2.28 ± 0.25.

On to VVSMTTVGYGDMYPVTIGGKIVGS [KCNA1], for which the protein stability index by setting is: under setting [1], 2.29 ± 0.36; under setting [2], 2.14 ± 0.24. As for VYSDHTNTNNLTFLMDLPSAGRSM [RNF180], the protein stability index is 2.29 ± 0.45 under setting [1] and 2.79 ± 0.42 under setting [2]. For WDPNTGFDLNNLDPELKNLFDMCG [WASL], the protein stability index is, setting by setting: under setting [1], 3.05 ± 0.36; under setting [2], 3.1 ± 0.37.

Sequence WEISWPLEQRGTHAVVGVATALAP [SPSB2] displayed a protein stability index under setting [1] of 2.44 ± 0.26 and a protein stability index under setting [2] of 2.73 ± 0.36. In the case of WIGNEWLPSLGLPQYRSYFMECLV [PPFIA4], the protein stability index reads like this: under setting [1], 3.67 ± 0.24; under setting [2], 2.15 ± 0.088.

In the case of WIHRPGCRCKNSNTVYCKLESCPS [SPRY1], the protein stability index is, setting by setting: under setting [1], 2.62 ± 0.26; under setting [2], 3.21 ± 0.78. The matching figures for WIIKKHNTNSDPLDPSFPVEFVRH [POMT2]: 2.54 ± 0.29 and 2.39 ± 0.51. WKNFDERKEMATILSKMPKPKPPP [CCNC]: the protein stability index runs as follows: under setting [1], 3.63 ± 0.28; under setting [2], 3.64 ± 0.31.

WLMTYVGAVFNGITLLILAELLIF [RTN3] yielded a protein stability index under setting [1] of 2.49 ± 0.28. As for WLSTAPTEPLTHWYQVRCLFQSPL [CARM1], the protein stability index under setting [1] came to 2.44 ± 1 and the protein stability index under setting [2] stood at 2.19 ± 0.4.

WLSYRLLKASEPGLFAVGEHTGEV [PCDHGA10] yielded a protein stability index under setting [1] of 2.35 ± 0.11 and a protein stability index under setting [2] of 2.31 ± 0.16. The matching figures for WPARVLDISLGQKEDGEPSWREAK [PWWP2B]: 4.18 ± 0.12 and 4.27 ± 0.11.

Regarding WTHDGIDINNNFPDLNTLLWEAED [CPXM2], the protein stability index under setting [1] was 3.44 ± 0.098 and the protein stability index under setting [2] was determined as 3.8 ± 0.45. The matching figures for WTLRRTKELRKDYQGPGTRRLQEV [DYRK1B]: 3.11 ± 0.32 and 3.1 ± 0.32.

Turning to YAMGITECDNMLMLLSVSQSMSEE [SEPHS2], the protein stability index turned out to be 2.16 ± 0.31 under setting [1] and 2.44 ± 0.22 under setting [2].

YFFKRPYPFVLFYSKFHGLEMCVD [KMT2E]: the protein stability index reads like this: under setting [1], 2.75 ± 1; under setting [2], 3.19 ± 0.55.

Regarding YFFLYQYCSIHCSDRKQVRNIAN [CSTF3], the protein stability index under setting [3] was found to be 3.03 ± 1.1 and the protein stability index under setting [4] was 3.22 ± 0.71. Regarding YFTNRKVNSVCWASLNHLDSHILL [DCAF4], the protein stability index was found to be 2.82 ± 0.56 under setting [1] and 2.42 ± 0.21 under setting [2]. The matching figures for YFVSESFEDAKEKMREFTKTIKRP [TPH1]: 3.15 ± 0.19 and 3.41 ± 0.14. The matching figures for YGVASCEACKAFFKRTIQGSIEYS [ESRRA]: 2.34 ± 0.22 and 2.52 ± 0.072. Take YIPRRLEEAAMQKCLVTEAQTLLR [RSAD1]: the protein stability index came out at 2.34 ± 0.23 under setting [1] and 2.63 ± 0.17 under setting [2]. The corresponding values for YIPVIKRALNSVPVIIAAVGTRQN [RHOBTB3] are 2.35 ± 0.52 and 2.24 ± 0.35.

As to YISETVLAIDAIHQLGFIHRDIKP [STK38L], the protein stability index runs as follows: under setting [1], 2.33 ± 0.74; under setting [2], 2.56 ± 0.24. Take YLDLPGSRQGSAEALRALQEGLWL [PKD2L1]: the protein stability index by setting is: under setting [1], 2.71 ± 0.27; under setting [2], 2.64 ± 0.34. On to YLNYYQGMLDVADESLTDLEAQPY [P3H4], for which the protein stability index reads like this: under setting [1], 2.8 ± 0.15; under setting [2], 2.81 ± 0.14.

YLRYVRRLDFFEKPDYEYLRTLFT [CSNK1G1]: the protein stability index reads like this: under setting [1], 2.34 ± 0.48; under setting [2], 2.24 ± 0.38. With YPAMTFYSPAVMNYSIPSNVTNLE [ESR2], the protein stability index is, setting by setting: under setting [1], 2.63 ± 0.61; under setting [2], 2.93 ± 0.25. As to YQHFLQDCVDGLFKEVKEKFKGWV [DLC1], the protein stability index by setting is: under setting [1], 2.26 ± 0.49; under setting [2], 2.02 ± 0.11. The corresponding values for YQLADWCLHHICTNYNNVCRKFPR [RHOBTB2] are 2.25 ± 0.52 and 2.23 ± 0.14. The corresponding values for YQPLVTMDDAMERTVQSFRHLRRV [NSDHL] are 3.14 ± 0.24 and 3.22 ± 0.31. The corresponding values for YQRWIYRVDPTRVNEFGMSGEDPT [CLPTM1] are 2.6 ± 0.34 and 2.72 ± 0.3.

Consider YQTEQSLRQLVESDINSLRRILDE [KRT33B], for which the protein stability index by setting is: under setting [1], 3.44 ± 0.16; under setting [2], 3.61 ± 0.3. The corresponding values for YRERRDSDTYRCEERSPSFGEDYY [CLK3] are 4.37 ± 0.2 and 4.29 ± 0.21.

As for YRQHCTLELGSYIKDLSVVHSDLS [CTDNEP1], the protein stability index by setting is: under setting [1], 2.4 ± 0.41; under setting [2], 2.34 ± 0.25.

As for YSYRRLGEEALSLQALDPQQCVDK [SLC22A15], the protein stability index runs as follows: under setting [1], 4.05 ± 0.45; under setting [2], 4.05 ± 0.31. The corresponding values for YVDIHTGLSGSGVAFVCAFSEALA [PYCR3] are 2.72 ± 1.2 and 2.4 ± 1. As to YVTPSDFDQLKQFLTFDKQVLRFY [EFHC1], the protein stability index by setting is: under setting [1], 2.03 ± 0.32; under setting [2], 2.28 ± 0.29. The matching figures for YYKPGLLMMCFILPTLVPWYFWGE [SCD]: 3.24 ± 0.7 and 2.83 ± 0.52.
